Values joined by “and” are separate entries in the source; they are usually repeats but may differ in a detail not shown here. Identical values can stand only once.
Conditions: whole UniProt chain shown; for Tm: Thermal; for denaturant m value / unfolding free energy: 21 °C, GdnHCl, Sodium phosphate 20 mM, CaCl2 1 mM
[1] = Armoracia rusticana, pH 7.4, CD, reversible: yes
[2] = Armoracia rusticana, pH 7.4, Fluorescence, reversible: yes

B1: Thioredoxin wild type, P80579 (protein)
chain: ATMTLTDANFQQAIQGDKPVLVDFWAAWCGPCRMMAPVLEEFAEAHADKVTVAKLNVDENPETTSQFGIMSIPTLILFKGGRPVKQLIGYQPKEQLEAQLADVLQ
Alicyclobacillus acidocaldarius subsp. acidocaldarius, pH 7, GdHCl, CD, Sodium phosphate 10 mM, reversible: yes
  denaturant midpoint (higher = more stable): 2.9 M
Alicyclobacillus acidocaldarius subsp. acidocaldarius, pH 7, CD, Sodium phosphate 10 mM, reversible: yes
  Tm: 84.5 °C and 88.2 °C
Alicyclobacillus acidocaldarius subsp. acidocaldarius, pH 7, Urea, CD, Sodium phosphate 10 mM, reversible: yes
  denaturant midpoint (higher = more stable): 6.7 M

B2: Peroxidase C2 wild type, P17179 (protein)
chain: MHSSSSLIKLGFLLLLLNVSLSHAQLSPSFYDKTCPQVFDIATNTIKTALRSDPRIAASILRLHFHDCFVNGCDASILLDNTTSFRTEKDAFGNARSARGFDVIDTMKAAVEKACPKTVSCADLLAIAAQKSVVLAGGPSWKVPSGRRDSLRGFMDLANDNLPGPSSTLQVLKDKFRNVGLDRPSDLVALSGGHTFGKNQCQFIMDRLYNFSNSGKPDPTLDKSYLSTLRKQCPRNGNLSVLVDFDLRTPTIFDNKYYVNLKENKGLIQSDQELFSSPDASDTIPLVRAYADGQGKFFDAFVEAMIRMGNLSPSTGKQGEIRLNCRVVNSKPKIMDVVDTNDFASSI
Armoracia rusticana, pH 7, Fluorescence, Unknown, reversible: yes
  Tm: 74 °C
[1]
  denaturant m value: 1.8 kcal/mol/M
  unfolding free energy: 1.82 kcal/mol
[2]
  denaturant m value: 0.3 kcal/mol/M
  unfolding free energy: 2.2 kcal/mol

B3: wild type, Q7M1T4 (protein)
chain: ASQTITVGPWGGPGGNGWDDGSYTGIRQIELSYKEAIGSFSVIYDLNGEPFSGPKHTSKLPYKNVKIELRFPDEFLESVSGYTAPFSALATPTPVVRSLTFKTNKGRTFGPYGDEEGTYFNLPIENGLIVGFKGRTGDLLDAIGVHMAL
Artocarpus integer, pH 7.4, CD, phosphate buffered saline (PBS) 10 mM, NaCl 150 mM, reversible: no
  Tm: 65.8 °C
Artocarpus integer, pH 7.4, Fluorescence, phosphate buffered saline (PBS) 10 mM, NaCl 150 mM, reversible: no
  Tm: 63.9 °C
